Data as given in the nanobody polyreactivity screen of Harvey et al. (2022).

Experiment: yeast display, Sf9 membrane polyspecificity reagent, FACS + sequencing; frameworks hold sequencing errors
Summary of the method: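 Galactose induction of a Saccharomyces cerevisiae BJ5465 synthetic nanobody display library ran 36–48 hours. The cells were then stained for 1 hour at 4 °C with 10% biotinylated, detergent-solubilized Sf9 membrane reagent, pulled down on streptavidin microbeads and FACS-sorted into low and high (top ~1%) gates on expression and reagent-binding fluorescence. Labels for polyreactivity follow the gate of origin.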

Row | Sequence | polyreactivity (PSR sort gate)
1 | QVQLQESGGGLVQAGGSLRLSCAASGTISDRAGMGWYRQAPAKNAIVATIDRGTNTNYADSVKGRFTISRVNAKNTVYLQMNSLKPEDTAVYNCAADGRYYIYLDYWGQGTQVTVSS | low polyreactivity
2 | QVQLQESGGGLVQAGGSLRLSCAASGTISPLPAMGWYRQAPGKEREFVAGIDTGAITNYADSVKGRFTISRDNAKNTVYLQMNSLKPEDTAVYYCAVFPAAYDYDERYYTYWGQGTQVTVSS | low polyreactivity
3 | QVQLQESGGGLVQAGGSLRLSCAASGTISQEDCMGWYRQATGKQREFVAAIGLGSNTNYADSLKGRFTISRDNAKNTVYLLMNSLKPEDTAVYYCAVSVWQYSDHVYRGQGTQVTVSS | low polyreactivity
4 | QVQLQESGGGLVQAGGSLRLSCAASGTISQEDWMGWYRQAPGKEREFVAAIGLGSNTNYADSLKGRFTISRDNAKKTVYLQMNSLKPEDTAVYYCAVSVWQYSDHVYRGQGTQVTVSS | low polyreactivity
5 | QVQLQESGGGLVQAGGSLRLSCAASGTISYAPHMGWYRQAPGKERELVAGITIGGTTYYADSVKGRFTISRDNANNTVYLQMNSLSPGDTAVYYCAAHSEQYTPFYYWGQGTQVTVSS | low polyreactivity
6 | QVQLQESGGGLVQAGGSLRLSCAASGTISYPRTMGWYRQAPGKEREFVAGIGVGGTTYYADSVKGRFTISRDNAKYTVYLQMNILKPEDAAVYYCAVAAYYDKYYVYWGQGTQVTVSF | low polyreactivity
7 | QVQLQESGGGLVQAGGSLRLSCAASGTMSDRPGMGWYRQAPAKNAIVATIDRGTNTNYADSVKGRFTISRDNAKNTVSLQMNSLKPEDSAVYNCAAVGRYYFSLDYWGPGTQVTVSS | low polyreactivity
8 | QVQLQESGGGLVQAGGSLRLSCAASGYISHAVEMCWYRQAPGKEHELVASISNGGSTNYADSVKGRFTISRDNAKNTVYLQMNSLKSEDTAVYYCAGWTGQVDIHYYWGQGTQVTVSS | low polyreactivity
9 | QVQLQESGGGLVQAGGSLRLSCAASGYISQSSVMGWYRQAPGKEREFVASISYGATTYYADSVKGRFTISRDNAKNTVYLQTNSPKPEDTAVYYCAVLVKRGFSHRYWGQGTQVTVSS | high polyreactivity
10 | QVQLQESGGGLVQAGGSLRLSCAASGYISTFSAEMGWYRQAPGKERELVASIAPGCTTSYADSVKGRFTISRDNAKNTVYLQMNSLKPEDTAVYYCAVDYTLPASFGYWGQGTQVTVSS | high polyreactivity
11 | QVQLQESGGGLVQAGGSLRLSCAASGYISTFSSEMGWYRQAPGKERELVASIAPGCTTSYADSVKGRFTISRDNAKNTVYLQMNSLKPEDTAVYYCAVGNGLSRYVYGDYDYWGQGTQVTVSS | high polyreactivity
12 | QVQLQESGGGLVQAGGSLRLSCAASRNISGSSDLGWYHQAPGKEREFVASITSGGTTYYADSVKGRFTISRDNAKNTVYLQMNSLKPEDTAVYYCAVGDPADAEFGYWGQGTQVTVSS | low polyreactivity
13 | QVQLQESGGGLVQAGGSLRLSCAGTGNIIDADFMRWYRQAPGKERELAASSTEGGSTNYAESVKSRFTISRDNANNTVYLQMNSLKPEVTAVYYCAAIAYPYIPTYFDYDSDYFYWGQGTQVTVSR | high polyreactivity
14 | QVQLQESGGGLVQAGGSLRLSCAPSGSISRYYDMGWYRQAPGKEREYVAGISGGAITYYADSVKGRFTISRDNAKNTVYLQMNSLKPEDTAVYYCAADTCVYQYHSYWGQGTQVTVSS | low polyreactivity
15 | QVQLQESGGGLVQAGGSLRLSCTASGTIYSTSAMGWYRQAPGKDREFVADIASGASTNYADSVKGRFTISRDNAKNTVYLQMNSLKPEDTAVYYCAAKRIRRRYKYDYWGQGTQVTVSS | high polyreactivity
16 | QVQLQESGGGLVQAGGSLRLSGAASGSISSRDAMGWYRQAPGKEREFVATIASGTTTYYADSVKGSFTISRDNAENTVYLQTNSLKPEDTAVYYCAAPTIQIYPFYYWGQGTQVTVSS | high polyreactivity
17 | QVQLQESGGGLVQAGGSLRLSSAASGSISSRDAMGWYRQAPGKEREFVATIASGTTTYYADSVKGSFTISRDNAENTVYLQTNSLKPEDTAVYYCAAPTIQIYPFYYWGQGTQVTVSS | high polyreactivity
18 | QVQLQESGGGLVQAGGSLRLSSAASGTISVHATMGWYRQAPGKERELVAGITDGANTYYADSVKGRFTISRDNSKNTEYLQMNSLKPEDTAVYYCAAYYGTVVHFTYWGQGTQVTVSS | low polyreactivity
19 | QVQLQESGGGLVQAGGSLRLTCAASGTISDSGLMGWYRQAAGKERELVAGISSGGITNYADSVKGRFTISRDNAKNTVYLQMNSLIPEDTAVYWGQGTQVTVSS | low polyreactivity
20 | QVQLQESGGGLVQAGGSLRMSCAASGSIFYVYGMGWYRQAPGKERELVAGINAGTNTNYADSVRGRFTISRDNAKNTVHLQMKSLKPEDTAVYYCAADGNGYQADEYWGQGTQVTVSS | high polyreactivity
21 | QVQLQESGGGLVQAGGSLRMSCAASGSISHYIFMGWYRQAPGKEREFVAGIGYGGTTNYADSVKVRFTISRDNAKNTVYLQMNRLKPEDTAMYYCAAREATEFYLYYWGQGTQVTVSS | low polyreactivity
22 | QVQLQESGGGLVQAGGSLSLSCAESGTISFTRDMVWYRQAPGKEREFVASIDRGASTYYADSVKGRFTISRDNAKNTVYLQMNSLKPEDSAVYYKAVIAPFYSSFAYWGQGTQVTVSS | high polyreactivity

Row | Sequence | polyreactivity (PSR sort gate)
23 | QVQLQESGGGLVQAGGSQRLSCAASGSISILQSRGCYRQAPGKERELVAGINWGATTYYADSVKGRLTTSRDYAKNTVYLQMNSLKPEDTAVYYCAVPTYYTYPLLYWGQGTQVTVSS | low polyreactivity
24 | QVQLQESGGGLVQAGGSQRLSCAASGYIIYFQYMGWYRQAPRKEREFVAAISDGANTNYADSVKGRFTISRDNAKNTVYLQMNSLKPEDTAVYYCAVYADENYYYIYWGQGTQVTVSS | low polyreactivity
25 | QVQLQESGGGLVQAGGSQRLSSAASGYNFYFQYMGWYRQAPGKEREFVAAISDGANTNNADSVKGRFTISRDNAKNTEYLQMNSLKPEDSAVYYCAVYADDNYYYIYWGQGTQVTVSS | low polyreactivity
26 | QVQLQESGGGLVQAGGTITLGYDMGWYRQAPGKEREFVAGIDTGAITYYADSVKGRFTNSRDNAKNTVYLQMNCLKPEDTAVYYCAAIQTHTYAHSYWGQGNQVTVSS | high polyreactivity
27 | QVQLQESGGGLVQAGGTITLGYDMGWYRQAPGKEREFVAGIDTGAITYYADSVKGRFTNSRDNAKNTVYLQMNSLKPEDTAVYYCAAILTHTYAHSYWGQGTQVTVSS | high polyreactivity
28 | QVQLQESGGGLVQAGGTLRLSCAASGSFSADEDMGWYRQAQGKEREFVAGISVGGNTNYADSVKGRFTISRENAKNTVYLQINSLKPEDTAVYYCAVLQDVYDALDYWAQGTQVTVSS | high polyreactivity
29 | QVQLQESGGGLVQAGVSLRLSCAASGSIFADVQMGWYRQAPGKERELVASIIFRGTTTYYADSVKGRFTISRDNAKNTVYLQMSSLKPEDTAVYYCAVGRSEGGDFAYWGQGTHVTVSS | low polyreactivity
30 | QVQLQESGGGLVQASGSLRLSCAASGNIFPDYLMGWYRLAPGKEREFVANITGGSTTNYADSVKGRFTISRDNATNTVYLQMNSLKPEDTAVYYCEVNFGTVVLYLYWGQGTQVTVSS | high polyreactivity
31 | QVQLQESGGGLVQEGGSLRLSCAASGNISPPADMGWYRQAPGKERELVASIGTGGTTNYADSVKGRCTISRDNAKNTVYLQMNSLKPDDTAVYYCAAVRYEYNPYDYWGQGTQVTVSS | low polyreactivity
32 | QVQLQESGGGLVQVGGSLRLSCAASGTIFIYGFLGWNRQAPGKERELVASINLGGITNYADSVKGRFTISRDNAKNTVYLQMISLKPEDTAVYYCAAYVVTGQNYGYWGQGTQVTVSC | low polyreactivity
33 | QVQLQESGGGLVQVGGSLRLSCAASGTIFIYGFLGWNRQAQGKELELVASINLGGITNYADSVKGRFTISRDNAKNTLYLQMISLKTEDTAVYYCAAYVVTGQNYGYWGQGTQVTVSS | low polyreactivity
34 | QVQLQESGGGLVQVGGSLRLSCAASGTIIIYGFLGWNRQAPGKERELVASINLGGITNYADSVKGRFTISRDNAKNTVYLQMISLKPEDTAVYYCAAYVVTGQNYGYWGQGTQVTVSS | low polyreactivity
35 | QVQLQESGGGPVLAGGSLRLSCAASGTIFVPLDMGWYRQAPGKEREFVATIGSGSSTYYADSVKGSFTISRDNVKNTVYLQMNSLKPEDTAVYYCAVSAAEQSRHYYWDQGTQVTVSS | low polyreactivity
36 | QVQLQESGGLVQAGGSLRLSCAASGSISGRNVMGWYRQAPGKEREFVASITDGSSTNYADSVKGRVTISRDNAKNTVYLQMNSLKPKDTAVYYCAAYAQRAKSFGYWGRGTQVTVSS | low polyreactivity
37 | QVQLQESGGRLEQAGGSLRPSCAASGSISDGVPMRWNRQAPGEERELVATTVLGATTNYADSVKGRFTISRGNAKHTVYLQMNSLKPEETAVYYCAARLRYDKGFSYWGQGTQVTVSS | low polyreactivity
38 | QVQLQESGGVLEQARGSLRLSCAASGFIFARNYMGWYSQAPGKERELVAGIGVGAITNYADSVKGRFTISRDNAKNTVYLQMNSLETEESAVYYCAVGDTVLGYHYYWGQGTQVTVSN | low polyreactivity
39 | QVQLQESGGVLVQAGGSLRQSYAASGYIFPSLAMGWYRQAPGKEREFVAAIGRGSTNNYADSVKGRFTISRDNAKNTAYQQMNSLKPEDTAVYYCAAAASPLTRHLYWGQGTQVTVSS | low polyreactivity
40 | QVQLQESGSGLVQAGGSLRLSCAAIGAIFPAYLMGWYRQAPGKERELVAGISYGSITYCADSVKGRFNISRDNAKNTVYLQMNSLKPEYTAVYYCAVWRPGGDEYYYWGQGTQVTVSS | low polyreactivity
41 | QVQLQESGVGLVQAYGSLRLSCAAIGSIFGYYYMGSYRQAPGKDRELVATINICGITNYADSVKGRFTISRDNAKYTVYLQMKSLKRDDTAVFYCAADEYAQRDLGYWGQGTQVTVSS | low polyreactivity
42 | QVQLQESGVRLVQAGGSLRLSCAASGPISRRSTMGWYRQAPGKERELVTAITRGTNTNYADSVKGRFTISRDNAKNTEYLQMNSLKPEDTAVYYCAAYGVLKPSRGDAVFHRYWGQGTQVTVSS | low polyreactivity
43 | QVQLQESRGGLVQAGGSLRLSCAASGSITHYIFMGWYRQAPGKEREFVAGIGYGGTTNYADSVKGRFTISRDNAKNTVFLQMNSLKPEDTAMYYCAAREATEFYLYYWGQGTQVTVSS | low polyreactivity
44 | QVQLQESSGGLVQAGGSLRMSCAASGTIFHFHIMGWYRQAPGKEREFVAAISYGTSTYYADSVKGRFTISRDNAKNTVYLQMNSQKPEDTGVYYCAVYDYLEVYCWYWGQGTQVTVSS | low polyreactivity
